Measured values reported in FireProtDB (doi:10.1111/j.1432-1033.1995.tb20520.x).
Several values for one entry are separate records, joined by “and”; a condition that tells them apart may be missing. Equal entries are not always repeated.

Settings: Paenibacillus macerans, pH 6, Sodium cacodylate 2 mM, reversible: yes, whole UniProt chain shown; for unfolding free energy: 25 °C, GdnHCl; for heat capacity change of unfolding / unfolding enthalpy (van 't Hoff) / Tm / unfolding enthalpy (calorimetric): Thermal

B1: Beta-glucanase wild type, P23904 (protein)
chain: MKKKSCFTLVTTFAFSLIFSVSALAGSVFWEPLSYFNRSTWEKADGYSNGGVFNCTWRANNVNFTNDGKLKLGLTSSAYNKFDCAEYRSTNIYGYGLYEVSMKPAKNTGIVSSFFTYTGPAHGTQWDEIDIEFLGKDTTKVQFNYYTNGVGGHEKVISLGFDASKGFHTYAFDWQPGYIKWYVDGVLKHTATANIPSTPGKIMMNLWNGTGVDDWLGSYNGANPLYAEYDWVKYTSN
- unfolding free energy (CD): 10.3 kcal/mol and 9.01 kcal/mol and 8.6 kcal/mol
- unfolding free energy (DSC, CaCl2 1 mM): 10.4 kcal/mol and 10.5 kcal/mol
- unfolding free energy (DSC): 10.8 kcal/mol and 9.89 kcal/mol and 8.41 kcal/mol
- heat capacity change of unfolding (CD, CaCl2 1 mM): 2.2 kcal/mol/K and 1.79 kcal/mol/K
- unfolding enthalpy (van 't Hoff) (CD, CaCl2 1 mM): 162 kcal/mol and 169 kcal/mol and 183 kcal/mol
- Tm (CD): 51.2 °C and 47.7 °C and 49.7 °C
- heat capacity change of unfolding (CD): 2.01 kcal/mol/K and 1.6 kcal/mol/K and 1.7 kcal/mol/K
- unfolding enthalpy (van 't Hoff) (CD): 154 kcal/mol and 145 kcal/mol and 135 kcal/mol
- heat capacity change of unfolding (DSC, CaCl2 1 mM): 2.2 kcal/mol/K and 1.79 kcal/mol/K and 2.44 kcal/mol/K
- unfolding enthalpy (calorimetric) (DSC, CaCl2 1 mM): 78.2 kcal/mol and 156 kcal/mol and 87 kcal/mol
- Tm (DSC): 51.2 °C and 49.3 °C and 46.6 °C
- heat capacity change of unfolding (DSC): 2.01 kcal/mol/K and 1.6 kcal/mol/K and 1.7 kcal/mol/K
- unfolding enthalpy (calorimetric) (DSC): 161 kcal/mol and 146 kcal/mol and 143 kcal/mol
